Test results from the nanobody polyreactivity screen of Harvey et al. (2022).

Test: yeast display, Sf9 membrane polyspecificity reagent, FACS + sequencing; frameworks hold sequencing errors
Method in brief: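 Polyreactivity labels are assigned by the sorting gate from which each nanobody was recovered. The gates were low and high (top ~1%), set on anti-HA fluorescence for expression and streptavidin fluorescence for reagent binding. Before sorting, galactose-induced (36–48 hours) yeast display cells were stained for 1 hour at 4 °C with 10% biotinylated, detergent-solubilized Sf9 membrane reagent.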

Row | Sequence | polyreactivity (PSR sort gate)
1 | QVQLVESGGGIVQAGCSLRLICAASGRIFYSNYMGWYRQAPGKERELVAAISSSGGSTYYADSLKGRFTISRDNANNTVYLQMNSLKPEDTAVYYCNAVHARYRSQGDYWGQGTQVTVSS | low polyreactivity
2 | QVQLVESGGGLVQAGGSLRLSCAASGSTFRRYAMGWYRQAPWKERELVAAITRRGITYYADSVKGRFTISRDNAKNTVYFQMNSLKPEDTAVYYCAATTFGPYALYPRYYYWGQGTQVTVSS | high polyreactivity
3 | QVQLVESGGGLVQEGGSLRLSCAASGSIFYRYTMGWYRPAPGKERELVAAISSRGGSTYYADSVKGRFTISRDNAKNTVYLQMNCLKPEDTAVYYCAARYYRNPVFVIMDYWGQGTQVTVSS | high polyreactivity
4 | QVQLVESGGGLVQAGGSLRLSCAASGFIFGVYAMGWYRQAPGKERELVAAITSTGSTYYADSVKGRFTISRDNAKNTVYLQMNSLKPEDTAVYYCATYYWLGLSLYDYWGQGTQVTVSS | low polyreactivity
5 | QVQLVESGGGLVQAGGSLRLSCAASGFTFRSNAMGWYRQAPGKERELVATISSGGSTYYADSVKGRFTISRDNAKNTVYLQMNSLKPEDTAVYYCAADDLGWWFYSGGEDYDYWGQGTQVTVSS | low polyreactivity
6 | QVQLVESGGGLVQAGGSLRLSCAASGCTFVSYAMGWYRQEPGKEREFVAAIAWTGGSTRYADSVKGRFTISRDNAKNTVYLQMNSLKPEDTAVYYCAARYRHYLYGYDYWGQGTQVTLSS | low polyreactivity
7 | QVQLVESGGGLVQAGGSLRLSCAASGITFPPYAMGWYRQAPGKERELVAAISWSGTSTYYADSVKGRFTISRDNAKNPVYLQMNSLKPEDTAVYYCAAVPRHPYHDKYDYWGQGTQVTVSS | high polyreactivity
8 | QVQLVESGGGLVQAGGSLRISCASSGRIFTFYAMGWYRPAPGKERELVAAISSGGSTYYADSVKGRFTISRDNAKNTFYLQMNSLKPEDTAVYYCAAEPVWYADYDYWGQGTQVTVSS | low polyreactivity
9 | QVQVVESGGGLVPAGGSLRLSCAASGRIFADNDMGWYRQAPGKERELVAGISSGGGTYADSVKGRFSISRDNAKNTVSVQTNSPKPEDTAVHYCNALHAYYVLTPYDYWGQGTQVTVSS | low polyreactivity
10 | QVQLVESGGGLVQAGGSLRLSCAASGFIFVKNAMGWYRQAPGKERELVAVISTRGGRTYYADSVKGRFTISRDNAKNTVYLQMNSLKPEDTAVYYCAADIWFYTYYEYDYWGQGTQVTVSS | high polyreactivity
11 | QVQLVESGGGLVQAGGSLRLSCAASGFTIYGYVMGWYRQAPGKVRELVAAISYSAGRTYYADSVKGRFTISRDNAKNTVYLQMNSLKPEDTAVYYCNAPSVGAAFDYCGQGTQVTVSS | high polyreactivity
12 | QVQLVESGGGIVQAGGSLRLSCAASGFTYSDYAMGWYRQAPGKERELVAGISSGGSTNYADSVKGRFTISRDNAKYTVYFQMNSLKQVDTAVYYCAAYLYATWSYFFTWLDFWGQGTKVTVSS | high polyreactivity
13 | QVQLVESGGGLVQAGGSLRLSCAASGSNFDYYTMGWYRQAPGKERELVAAISRSGGSTRYADSVKGRFTISRDNAKNTVYLQMNSLKPEDTGVSYCAAGARQGVYRGGDYWGQGTQVTVSS | low polyreactivity
14 | QVQLVESGGGLVQAGGSLRLSCAASGFTFGSNDMGWYRQAPGKERELVAAINYSGVRTYYADSVKGRFTISRDNAKNTVYLQMNSLKPEDTAVYYCAKKRSKPISFDYWVQGTQVTVSS | high polyreactivity
15 | QVQLVESGGGLVQAGGSLRLSCAASGRTFGYYAMGWSRQAPGKERELVAAITYSGGRTRYADSVKGRFTISRDNAKNTVYLQMNSLKPEDTAVYYCNRVIPTQSLRDYYWGQGTQVTVSS | high polyreactivity
16 | QVQLVESGGGLVQAGGSLRLSCAASGRTFTVYAMGWYRQAPGKERELVAAINYSGGRTYYADSVKGRFTISRDNAKNTVYLQMNSLKPEDTAVYYCAAYVYQSSPRYSRYGGYDYWGQGTQVTVSS | low polyreactivity
17 | QVQLVESGGGLVQAGGSLRLSCAASGSIIFRYNMGWSRQAPGKERELVAAITTGGSTNYADSVKGRFTISRDNAKNTVSLQMNSLKPEDTAVYYCNRDNRRWTRAAVRVDFYYWGQGTQVTVSS | high polyreactivity
18 | QVQLVESGGGLVQAGGSLRLSCAASGSIFLVNAMGWYRQAPGKERELVAAIRGSGGSTYYADSVKGRFTISRDNAKNTVYLQMNSLKPEDTAVYYCAADIWRLAYDYWGQGTQVTVSS | low polyreactivity
19 | QVQLEESGGGLVQAGGSLRLSCAASGRTFDYYAMGWYRQAPGKERELVAAIRLISGNTYYADSVKGRFTISRDNAKNTVYLQMNSLKPEDTAVYYCAAPSDGVPSLYGGMDYWGQGTQVTVSS | low polyreactivity
20 | QVQLVESGGGLVQAGGSLRLSCAASGSIFDVYAMGWYRQAPGKERELVARITWSGGSTYYADSVKGRFTISRDNAKNTVYLQMTSLKPEDTAVYYCNVDQVHPTRGLDYWGQGTQVTVSS | low polyreactivity
21 | QVQLEESGGGLVQAGGSLRLSCAASGSTFVYYPMGWYRQATGKERELVAVISDDGGTYYADSVKGRFTISRDNAKNTVYLQMNSLKPEDTAVFYCAKDYYGGAFYWYNDRSGDYWGQGTQVTVSS | low polyreactivity
22 | QVQLVESGGGLVQAGGSLRLSCAASGSTFAQNAMGWYRQAPGKERELVAAISRRGTITNYADSVKGRFTISRDNAKNTVYLQMNSLKPEDTAVYYCAKEGTWTGGSDNYWGQGTQVTVSS | high polyreactivity

Row | Sequence | polyreactivity (PSR sort gate)
23 | QVQLEESGGGLVQAGGSLRLSCAASGRIIGGYAMGWYRQAPGKERELVAGIRGGTSTYYADSVKGRFTISRDNAKNTVYLQMNSQKPEDTAVYYCNARSLGRKYDYWGQGTQVTVSS | low polyreactivity
24 | QVQLVESGGGLVQAGGSLRLSCAASGRIFYRYAMGWYRQAPGKERELVASISGSGGRTYYADSVKGRFTISRDNAKNTVDLQMNSLKPEDTAVYYCAARIRPSYDWGQGTQVTVSS | high polyreactivity
25 | QVQLVESGGGLVQAGGSLRVSCAASGSIFHENAMGWYRPAPGKEWELVAAIDQTGSTYADSVKGRFTISRDNAKNTVYLQMNSLKPEDTAVYYCAKGDVSLDYPSLEFDYWGQGTQVTVSS | low polyreactivity
26 | QVQLVESGGGLVQAGGSLRLSCAASGSTSQRNAMGWYRQAPGKERELVAAISRSGGSTSYADSVKGRFTISRDNAKNTVYLQMNSLKPEDTAVYYCNTDRRIYRVWYYYWGQGTQVTVSS | high polyreactivity
27 | QVQLVESGGGLVQAGGSLRLSCAASGLTFAVYAMGWYRQAPGKVRELVAAITYSGSRTYYADSVKGRFTISRDNAKNTVYLQMNSLKPEVTAVYYCNALYRRDIKFYYWGQGTQVTVSS | high polyreactivity
28 | QVQLVESGGGLVQAGGSLRLSCAASGSTFNGYAMGWYRQAPGKERELVAAISKRGGGTYYADSVKGRFTISRDNAKNTVYLQMNSLKPEDTAVYYCAAVSGPFVQTSGNGEYDYWGQGTQVTVSS | low polyreactivity
29 | QVQLVESGGGLVQAGGSLRLRCAASGRTFWVNAMGCDRQAPGTERELVAGITFRGGSTDYADSVKGRFTISRDNAQNTVYLQMNRLKPEDTAVDDCAARVYRYGAMDYWGQGTQVTVSS | high polyreactivity
30 | QVQLVESGVGLVQAGGSLRLSCAASGRIFAYNAMGWYRQAPGKERELVAAISSSDDDTYYADSVKGRFTISRDNAKNTVYLQMNSLKPEDTAGYYCAAEWDTDRLWAGPRGSLYDYWGQGTQVTVSS | high polyreactivity
31 | QVQLVESGGGLVQAGVSLRLSCAASGSTLVYYAMGWYRQAPGKERELVAAITRSGDNTYYADSVKGRFTISRDNAKNTVYLQMNSLKPEDTAVYYCAVKKRVYSGDYWGQGTQVTVSS | high polyreactivity
32 | QVLLVESGGGLVQAGGSLRLSCASSGRILGYYAKGWYRQAPGKERELVAGITYSAGRTYYADSVKGRFTISRDNSKNTVYLQINRQTPEDTAVYYCAKALVRSGSTRGTPGYSYWGQGTQVTVSS | high polyreactivity
33 | QVQLVESGGGLVQAGGSLRLSCAASGIIFWAYAMGWYRQAPGKERELVAVISRGGSTNYADSVKGRFTISRDNAKNTVYLQMNSLKPEDTAVYYCAARYGWGQGTQVTVSS | high polyreactivity
34 | QVQLVESGGGLVQAGGSLRLSCAASGRIFSPNAMGWSRQAPGKERELVAAITRGGSTNYADSVKGRFTISRDNAKYTVYLQMNSLKPEDTAVYFCAALLAKTISGRGYNSWGQGTQVTVSS | low polyreactivity
35 | QVQLVESGGGLVQAGGSLRLSCAPSGRTFYIYAMGWSRQAPGKERELVAAITRSGGSTYYADSVKGRFTISRDNAKNTVYLQMNSLKPEDTAVYYCNARRWITSDYWGQGTQVTVSS | high polyreactivity
36 | QFQLVESGGGLVQAGGSLRLSCAASGQILPYYAMGWYRQAPGKERELVAAISRTGGRTSYADSVNGRLTISRDNAKNTFYLQMNSLSPEDTAVYYCAAVGQSGGRRYDYWGQGTQVTVSS | high polyreactivity
37 | QVQLVESGGGLVQAGGSLRLSCAASGSTFYTYAMGWYRQAPGKERELVARIRWSVGSTYYADSVKGRFTISRDNAKNTVYLQMNSLKPEDTAVYYCAADYYKRYKYLYDYWGQGTQVTVSS | high polyreactivity
38 | QVQLVESGGGLVQAGGSLRLSCAASGRIYRYAMGWYIQAPGKERELVASISYSGGSTYYADSVKGRFTISRDNAKNTVYLQMNSLKPEDTAVYYCAARTRHVHYGYWGQGTQVTVSS | high polyreactivity
39 | QVQLVESGGGLVQAGGSLRLSCAASGIIFAYYAMGWYRQAPGKERELVAAISWNSGYTYYADSVKGRFTISRDNAKNTVYLQMNSLKPEDSAVYYCAAESYYSYSYYRPYEYYYWGQGTQLTVSS | high polyreactivity
40 | QVQLVESGGGLVQAGGSLRLSCASSGRIFDGYAMVWYRQAPGKERELVATISSGGSTYYADSVKGRFTISRDNAKNTVYLQMNSLKPEDTAVYYCAADSWVQFDYWGQGTQVTVSS | low polyreactivity
41 | QVQLVESGGGLVQAGGSLRLSCAATGRIFQRNAMGWSRQEPGKEREFVAAISSRGGTTYYADSVKGRFTISRDNAKNTVYLQMNSLKQEDTAVYYCAAGYVHLYYFHEYYWGQGTQVTVSS | high polyreactivity
42 | QVQLVESGGGLVQAGGSLSLMCAASGGIFPRYTRGWYRQAPGKEREMVASISRSGASTYYADSVKGRFTISRDNAKNTVYLQMNSLKTEDTAVYYCNARFVTGYWYIWENYWGQGTQVTVSS | high polyreactivity
43 | QVQLEESGGGLVQAGGTLRLSCAASGRIFSGYAMGWYRQAPGKERELGAAISSSGGSTYYADSVQGRFTISRDNAKNTVYLQMNSLKPEDTAVYYCAASRSRYSVNWYNYWGQGTQVSVSS | high polyreactivity
